Target: T1, His-Msb3 (S. cerevisiae, UniProt P48566 1-633)
T1 sequence: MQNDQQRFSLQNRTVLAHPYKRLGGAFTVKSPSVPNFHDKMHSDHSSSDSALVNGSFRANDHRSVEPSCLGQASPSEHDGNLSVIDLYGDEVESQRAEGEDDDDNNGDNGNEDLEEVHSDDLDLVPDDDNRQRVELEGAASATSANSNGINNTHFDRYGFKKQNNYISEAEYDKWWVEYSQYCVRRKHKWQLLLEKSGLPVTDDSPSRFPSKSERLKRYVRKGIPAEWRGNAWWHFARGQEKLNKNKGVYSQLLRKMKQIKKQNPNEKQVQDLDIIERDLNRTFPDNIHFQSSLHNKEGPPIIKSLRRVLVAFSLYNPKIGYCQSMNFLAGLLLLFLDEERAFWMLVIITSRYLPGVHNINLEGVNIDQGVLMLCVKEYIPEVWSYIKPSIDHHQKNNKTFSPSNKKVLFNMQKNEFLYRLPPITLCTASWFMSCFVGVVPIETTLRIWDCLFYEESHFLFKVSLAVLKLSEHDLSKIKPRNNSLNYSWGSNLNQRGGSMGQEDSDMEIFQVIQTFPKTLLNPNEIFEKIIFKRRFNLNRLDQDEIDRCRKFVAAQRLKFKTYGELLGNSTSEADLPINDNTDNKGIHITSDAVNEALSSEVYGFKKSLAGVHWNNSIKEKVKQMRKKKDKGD
Assay: pull-down

B1: GST-Vps21 (preloaded with GDP) (enzyme)
chain: MNTSVTSIKLVLLGEAAVGKSSIVLRFVSNDFAENKEPTIGAAFLTQRVTINEHTVKFEIWDTAGQERFASLAPMYYRNAQAALVVYDVTKPQSFIKARHWVKELHEQASKDIIIALVGNKIDMLQEGGERKVAREEGEKLAEEKGLLFFETSAKTGENVNDVFLGIGEKIPLKTAEEQNSASNERESNNQRVDLNAANDGTSANSACSC
  binding result: binds

Source: publication PMC3386215 (Molecular Biology of the Cell, 2012)
